The values below come from US20230395193A1 (priority 2020, published 2023).

First the molecules themselves.
B1: M-Q4KMQ2 (protein, UniProt Q4KMQ2 1-910, looked up)
Anoctamin-6: MKKMSRNVLLQMEEEEDDDDGDIVLENLGQTIVPDLGSLESQHDFRTPEFEEFNGKPDSLFFNDGQRRIDFVLVYEDESRKETNKKGTNEKQRRKRQAYESNLICHGLQLEATRSVLDDKLVFVKVHAPWEVLCTYAEIMHIKLPLKPNDLKNRSSAFGTLNWFTKVLSVDESIIKPEQEFFTAPFEKNRMNDFYIVDRDAFFNPATRSRIVYFILSRVKYQVINNVSKFGINRLVNSGIYKAAFPLHDCKFRRQSEDPSCPNERYLLYREWAHPRSIYKKQPLDLIRKYYGEKIGIYFAWLGYYTQMLLLAAVVGVACFLYGYLNQDNCTWSKEVCHPDIGGKIIMCPQCDRLCPFWKLNITCESSKKLCIFDSFGTLVFAVFMGVWVTLFLEFWKRRQAELEYEWDTVELQQEEQARPEYEARCTHVVINEITQEEERIPFTAWGKCIRITLCASAVFFWILLIIASVIGIIVYRLSVFIVFSAKLPKNINGTDPIQKYLTPQTATSITASIISFIIIMILNTIYEKVAIMITNFELPRTQTDYENSLTMKMFLFQFVNYYSSCFYIAFFKGKFVGYPGDPVYWLGKYRNEECDPGGCLLELTTQLTIIMGGKAIWNNIQEVLLPWIMNLIGRFHRVSGSEKITPRWEQDYHLQPMGKLGLFYEYLEMIIQFGFVTLFVASFPLAPLLALVNNILEIRVDAWKLTTQFRRLVPEKAQDIGAWQPIMQGIAILAVVTNAMIIAFTSDMIPRLVYYWSFSVPPYGDHTSYTMEGYINNTLSIFKVADFKNKSKGNPYSDLGNHTTCRYRDFRYPPGHPQEYKHNIYYWHVIAAKLAFIIVMEHVIYSVKFFISYAIPDVSKRTKSKIQREKYLTQKLLHENHLKDMTKNMGVIAERMIEAVDNNLRPKSE
B2: M-Q5JRX3 (protein, UniProt Q5JRX3 29-1037, looked up)
Presequence protease, …: NSNRACERALQYKLGDKIHGFTVNQVTSVPELFLTAVKLTHDDTGARYLHLAREDTNNLFSVQFRTTPMDSTGVPHILEHTVLCGSQKYPCRDPFFKMLNRSLSTFMNAFTASDYTLYPFSTQNPKDFQNLLSVYLDATFFPCLRELDFWQEGWRLEHENPSDPQTPLVFKGVVFNEMKGAFTDNERIFSQHLQNRLLPDHTYSVVSGGDPLCIPELTWEQLKQFHATHYHPSNARFFTYGNFPLEQHLKQIHEEALSKFQKIEPSTVVPAQTPWDKPREFQITCGPDSFATDPSKQTTISVSFLLPDITDTFEAFTLSLLSSLLTSGPNSPFYKALIESGLGTDFSPDVGYNGYTREAYFSVGLQGIAEKDIETVRSLIDRTIDEVVEKGFEDDRIEALLHKIEIQMKHQSTSFGLMLTSYIASCWNHDGDPVELLKLGNQLAKFRQCLQENPKFLQEKVKQYFKNNQHKLTLSMRPDDKYHEKQAQVEATKLKQKVEALSPGDRQQIYEKGLELRSQQSKPQDASCLPALKVSDIEPTIPVTELDVVLTAGDIPVQYCAQPTNGMVYFRAFSSLNTLPEELRPYVPLFCSVLTKLGCGLLDYREQAQQIELKTGGMSASPHVLPDDSHMDTYEQGVLFSSLCLDRNLPDMMQLWSEIFNNPCFEEEEHFKVLVKMTAQELANGIPDSGHLYASIRAGRTLTPAGDLQETFSGMDQVRLMKRIAEMTDIKPILRKLPRIKKHLLNGDNMRCSVNATPQQMPQTEKAVEDFLRSIGRSKKERRPVRPHTVEKPVPSSSGGDAHVPHGSQVIRKLVMEPTFKPWQMKTHFLMPFPVNYVGECIRTVPYTDPDHASLKILARLMTAKFLHTEIREKGGAYGGGAKLSHNGIFTLYSYRDPNTIETLQSFGKAVDWAKSGKFTQQDIDEAKLSVFSTVDAPVAPSDKGMDHFLYGLSDEMKQAHREQLFAVSHDKLLAVSDRYLGTGKSTHGLAILGPENPKIAKDPSWIIQ
modifications: interactor of viral M protein
B3: E-Q9NPI6 (protein, UniProt Q9NPI6 1-582, looked up)
mRNA-decapping enzyme 1A: MEALSRAGQEMSLAALKQHDPYITSIADLTGQVALYTFCPKANQWEKTDIEGTLFVYRRSASPYHGFTIVNRLNMHNLVEPVNKDLEFQLHEPFLLYRNASLSIYSIWFYDKNDCHRIAKLMADVVEEETRRSQQAARDKQSPSQANGCSDHRPIDILEMLSRAKDEYERNQMGDSNISSPGLQPSTQLSNLGSTETLEEMPSGSQDKSAPSGHKHLTVEELFGTSLPKEQPAVVGLDSEEMERLPGDASQKEPNSFLPFPFEQLGGAPQSETLGVPSAAHHSVQPEITTPVLITPASITQSNEKHAPTYTIPLSPVLSPTLPAEAPTAQVPPSLPRNSTMMQAVKTTPRQRSPLLNQPVPELSHASLIANQSPFRAPLNVTNTAGTSLPSVDLLQKLRLTPQHDQIQTQPLGKGAMVASFSPAAGQLATPESFIEPPSKTAAARVAASASLSNMVLAPLQSMQQNQDPEVFVQPKVLSSAIPVAGAPLVTATTTAVSSVLLAPSVFQQTVTRSSDLERKASSPSPLTIGTPESQRKPSIILSKSQLQDTLIHLIKNDSSFLSTLHEVYLQVLTKNKDNHNL
modifications: interactor of SARS-CoV-2 E
B4: M-Q5BJH7 (protein, UniProt Q5BJH7 1-314, looked up)
Protein YIF1B: MHPAGLAAAAAGTPRLRKWPSKRRIPVSQPGMADPHQLFDDTSSAQSRGYGAQRAPGGLSYPAASPTPHAAFLADPVSNMAMAYGSSLAAQGKELVDKNIDRFIPITKLKYYFAVDTMYVGRKLGLLFFPYLHQDWEVQYQQDTPVAPRFDVNAPDLYIPAMAFITYVLVAGLALGTQDRFSPDLLGLQASSALAWLTLEVLAILLSLYLVTVNTDLTTIDLVAFLGYKYVGMIGGVLMGLLFGKIGYYLVLGWCCVAIFVFMIRTLRLKILADAAAEGVPVRGARNQLRMYLTMAVAAAQPMLMYWLTFHLVR
B5: E-Q9BTV4 (protein, UniProt Q9BTV4 2-400, looked up)
Transmembrane protein 43: AANYSSTSTRREHVKVKTSSQPGFLERLSETSGGMFVGLMAFLLSFYLIFTNEGRALKTATSLAEGLSLVVSPDSIHSVAPENEGRLVHIIGALRTSKLLSDPNYGVHLPAVKLRRHVEMYQWVETEESREYTEDGQVKKETRYSYNTEWRSEIINSKNFDREIGHKNPSAMAVESFMATAPFVQIGRFFLSSGLIDKVDNFKSLSLSKLEDPHVDIIRRGDFFYHSENPKYPEVGDLRVSFSYAGLSGDDPDLGPAHVVTVIARQRGDQLVPFSTKSGDTLLLLHHGDFSAEEVFHRELRSNSMKTWGLRAAGWMAMFMGLNLMTRILYTLVDWFPVFRDLVNIGLKAFAFCVATSLTLLTVAAGWLFYRPLWALLIAGLALVPILVARTRVPAKKLE

For the assay, the system named is SARS-CoV-1, MERS-CoV and SARS-CoV-2 proteins in HEK293T cells. The arrangement: species or system human.
Molecule B1 showed an MIST_MERS of 0, an MIST_SARS1 of 0.864, an MIST_SARS2 of 0.9939 and a Saint_MERS of 0. The molecule also had a Saint_SARS1 of 0.32 and a Saint_SARS2 of 1.

Molecule B2 yielded an MIST_MERS of 0, an MIST_SARS1 of 0.001111, an MIST_SARS2 of 0.9523 and a Saint_MERS of 0. Also, the Saint_SARS1 is listed as 0 and the Saint_SARS2 is listed as 1.

In the case of B3, the MIST_MERS worked out at 0.9797, the MIST_SARS1 came to 0, the MIST_SARS2 is 0 and the Saint_MERS amounted to 1. The same molecule showed a Saint_SARS1 of 0 and a Saint_SARS2 of 0.

Regarding B4, the MIST_MERS came to 0.3712, the MIST_SARS1 was 0.9893, the MIST_SARS2 was found to be 0.5979 and the Saint_MERS worked out at 0. The molecule also had a Saint_SARS1 of 0.97 and a Saint_SARS2 of 1.

The molecule B5 displayed an MIST_MERS of 0.8753, an MIST_SARS1 of 0, an MIST_SARS2 of 0 and a Saint_MERS of 1. Further, the Saint_SARS1 is reported as 0 and the Saint_SARS2 was 0.
